This data set addresses T1, PUF4 RNA-binding domain (Saccharomyces cerevisiae, UniProt P25339 537-888).
T1 sequence: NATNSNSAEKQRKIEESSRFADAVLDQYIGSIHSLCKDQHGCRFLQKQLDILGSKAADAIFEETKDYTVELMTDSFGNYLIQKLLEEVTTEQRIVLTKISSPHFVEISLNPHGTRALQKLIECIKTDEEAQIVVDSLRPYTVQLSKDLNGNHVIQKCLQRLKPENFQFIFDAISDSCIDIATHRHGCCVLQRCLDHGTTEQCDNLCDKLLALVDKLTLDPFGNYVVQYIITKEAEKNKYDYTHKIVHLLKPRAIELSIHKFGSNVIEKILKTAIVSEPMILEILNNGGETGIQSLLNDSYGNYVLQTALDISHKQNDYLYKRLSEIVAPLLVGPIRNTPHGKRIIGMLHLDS
The experiment in a line: Mg; RNA-MaP; 20 mM Na-HEPES pH 7.4, 30 mM KOAc, 0.75 mM MgCl2, 0.1% Tween-20, 5% glycerol, 0.1 mg/mL BSA, 2 mM DTT; 25 C; 0.0125-409.6 nM protein. As to conditions: tags: N-His6-TEV cleaved; C-SNAP kept, Cy3B-labelled; label: tethered on chip by stalled RNA polymerase.

In the case of UCUCUUUGUAACCCGAUCUCUU (ssRNA) [Ic_S1_P5E.1_K5.1_C5.1_H5.1_A5.1_[T5A]_[T6C]_[A7C]_F5.1_[T8C]_[T9G]_T5.1], the Kd (in general, a measure of binding affinity in units of concentration) turned out to be 1950 nM.
UCUCUUUGCGUAUAUCUCUU (ssRNA) [Ib_S1_P3E.1_K3.1_C3.1_H3.1_[T3C]_[A4G]_A3.1_F3.1_T3.1]: the Kd was more than 2300 nM.
The value for UCUCUUUGUACUCUACUCUCUU (ssRNA) [Ic_S1_P5E.1_K5.1_C5.1_H5.1_A5.1_[T5C]_[A7C]_F5.1_[T9A]_[A10C]_T5.1] was 4.81 nM.
The value for UCUCUUUGUAACCGGUUCUCUU (ssRNA) [Ic_S1_P5E.1_K5.1_C5.1_H5.1_A5.1_[T5A]_[T6C]_[A7C]_F5.1_[T8G]_[T9G]_[A10T]_T5.1] was more than 2300 nM; that for UCUCUUUGUAUGCCAUUCUCUU (ssRNA) [Ic_S1_P5E.1_K5.1_C5.1_H5.1_A5.1_[T6G]_[A7C]_F5.1_[T8C]_[T9A]_[A10T]_T5.1] was 100 nM.
As for UCUCUUUGUACAUAGUUCUCUU (ssRNA) [Ic_S1_P5E.1_K5.1_C5.1_H5.1_A5.1_[T5C]_[T6A]_[A7T]_F5.1_[T8A]_[T9G]_[A10T]_T5.1], the Kd turned out to be 4.18 nM.
The result for UCUCUUUGUAGCCCAAUCUCUU (ssRNA) [Ic_S1_P5E.1_K5.1_C5.1_H5.1_A5.1_[T5G]_[T6C]_[A7C]_F5.1_[T8C]_[T9A]_T5.1] reads more than 2300 nM; that for UCUCUUUGUACCUGCUUCUCUU (ssRNA) [Ic_S1_P5E.1_K5.1_C5.1_H5.1_A5.1_[T5C]_[T6C]_[A7T]_F5.1_[T8G]_[T9C]_[A10T]_T5.1], 378 nM.
UCUCUUUGUACAAAACUCUCUU (ssRNA) [Ic_S1_P5E.1_K5.1_C5.1_H5.1_A5.1_[T5C]_[T6A]_F5.1_[T8A]_[T9A]_[A10C]_T5.1] came in with a Kd of 45.2 nM.
The value for UCUCUUUGUAAAUACUUCUCUU (ssRNA) [Ic_S1_P5E.1_K5.1_C5.1_H5.1_A5.1_[T5A]_[T6A]_[A7T]_F5.1_[T8A]_[T9C]_[A10T]_T5.1] was 37.4 nM.
The molecule UCUCUUUGUAACCGUAUCUCUU (ssRNA) [Ic_S1_P5E.1_K5.1_C5.1_H5.1_A5.1_[T5A]_[T6C]_[A7C]_F5.1_[T8G]_T5.1] displayed a Kd of 52.9 nM.
UCUCUUUGUAGCGUAAUCUCUU (ssRNA) [Ic_S1_P5E.1_K5.1_C5.1_H5.1_A5.1_[T5G]_[T6C]_[A7G]_F5.1_[T9A]_T5.1] displayed a Kd of 300 nM.
UCUCUUUGUAGUACCUUCUCUU (ssRNA) [Ic_S1_P5E.1_K5.1_C5.1_H5.1_A5.1_[T5G]_F5.1_[T8C]_[T9C]_[A10T]_T5.1] came in with a Kd of more than 2300 nM.
UCUCUUUGUACCUAGCUCUCUU (ssRNA) [Ic_S1_P5E.1_K5.1_C5.1_H5.1_A5.1_[T5C]_[T6C]_[A7T]_F5.1_[T8A]_[T9G]_[A10C]_T5.1] gave a dissociation constant Kd of 114 nM.
The value for UCUCUUUGUAGCUUACUCUCUU (ssRNA) [Ic_S1_P5E.1_K5.1_C5.1_H5.1_A5.1_[T5G]_[T6C]_[A7T]_F5.1_[T9A]_[A10C]_T5.1] was 19.2 nM; that for UCUCUUUGUAGCACUUUCUCUU (ssRNA) [Ic_S1_P5E.1_K5.1_C5.1_H5.1_A5.1_[T5G]_[T6C]_F5.1_[T8C]_[A10T]_T5.1] was 1000 nM.
Turning to UCUCUUUGUACUUGUUUCUCUU (ssRNA) [Ic_S1_P5E.1_K5.1_C5.1_H5.1_A5.1_[T5C]_[A7T]_F5.1_[T8G]_[A10T]_T5.1], the Kd was found to be 87.4 nM.
The result for UCUCUUUGUAACAUUCUCUCUU (ssRNA) [Ic_S1_P5E.1_K5.1_C5.1_H5.1_A5.1_[T5A]_[T6C]_F5.1_[A10C]_T5.1] reads 15 nM; that for UCUCUUUGACUAUAUCUCUU (ssRNA) [Ib_S1_P3E.1_K3.1_C3.1_H3.1_[T3A]_[A4C]_A3.1_F3.1_T3.1], more than 2300 nM; that for UCUCUUGGUACAUAUCUCUU (ssRNA) [Ib_S1_P3E.1_K3.1_C3.1_H3.1_[T1G]_A3.1_[T5C]_F3.1_T3.1], 1550 nM.
The result for UCUCUUUGUACUCACGUCUCUU (ssRNA) [Ic_S1_P5E.1_K5.1_C5.1_H5.1_A5.1_[T5C]_[A7C]_F5.1_[T8A]_[T9C]_[A10G]_T5.1] reads 1100 nM; that for UCUCUUUGUAUUCCAAUCUCUU (ssRNA) [Ic_S1_P5E.1_K5.1_C5.1_H5.1_A5.1_[A7C]_F5.1_[T8C]_[T9A]_T5.1], 526 nM; that for UCUCUUUGUAUCUUAUUCUCUU (ssRNA) [Ic_S1_P5E.1_K5.1_C5.1_H5.1_A5.1_[T6C]_[A7T]_F5.1_[T9A]_[A10T]_T5.1], 3.28 nM.
The molecule UCUCUUUGUAAUCCGCUCUCUU (ssRNA) [Ic_S1_P5E.1_K5.1_C5.1_H5.1_A5.1_[T5A]_[A7C]_F5.1_[T8C]_[T9G]_[A10C]_T5.1] came in with a Kd of 1660 nM.
The molecule UCUCUUUGUAUCAAUGUCUCUU (ssRNA) [Ic_S1_P5E.1_K5.1_C5.1_H5.1_A5.1_[T6C]_F5.1_[T8A]_[A10G]_T5.1] had a dissociation constant (Kd) of 354 nM.
UCUCUUCGUACAUAUCUCUU (ssRNA) [Ib_S1_P3E.1_K3.1_C3.1_H3.1_[T1C]_A3.1_[T5C]_F3.1_T3.1]: the Kd was determined as 1050 nM.
The value for UCUCUUUGUAUGUACCUCUCUU (ssRNA) [Ic_S1_P5E.1_K5.1_C5.1_H5.1_A5.1_[T6G]_[A7T]_F5.1_[T8A]_[T9C]_[A10C]_T5.1] was 93.8 nM; that for UCUCUUUGUAGCUGCUUCUCUU (ssRNA) [Ic_S1_P5E.1_K5.1_C5.1_H5.1_A5.1_[T5G]_[T6C]_[A7T]_F5.1_[T8G]_[T9C]_[A10T]_T5.1] was 2150 nM; that for UCUCUUUGUAAAUAUCUCUCUU (ssRNA) [Ic_S1_P5E.1_K5.1_C5.1_H5.1_A5.1_[T5A]_[T6A]_[A7T]_F5.1_[T8A]_[A10C]_T5.1] was 27.1 nM.
UCUCUUUGUAGCUGCCUCUCUU (ssRNA) [Ic_S1_P5E.1_K5.1_C5.1_H5.1_A5.1_[T5G]_[T6C]_[A7T]_F5.1_[T8G]_[T9C]_[A10C]_T5.1] yielded a Kd of more than 2300 nM.
UCUCUUUGUACCGUCCUCUCUU (ssRNA) [Ic_S1_P5E.1_K5.1_C5.1_H5.1_A5.1_[T5C]_[T6C]_[A7G]_F5.1_[T9C]_[A10C]_T5.1] came in with a Kd of 1540 nM.
UCUCUUUGUAUCUCGAUCUCUU (ssRNA) [Ic_S1_P5E.1_K5.1_C5.1_H5.1_A5.1_[T6C]_[A7T]_F5.1_[T8C]_[T9G]_T5.1] displayed a Kd of 463 nM.
The value for UCUCUUUGUAACACCAUCUCUU (ssRNA) [Ic_S1_P5E.1_K5.1_C5.1_H5.1_A5.1_[T5A]_[T6C]_F5.1_[T8C]_[T9C]_T5.1] was 111 nM; that for UCUCUUUGUAUGACCCUCUCUU (ssRNA) [Ic_S1_P5E.1_K5.1_C5.1_H5.1_A5.1_[T6G]_F5.1_[T8C]_[T9C]_[A10C]_T5.1] was 2180 nM; that for UCUCUUUGUAUCCCUAUCUCUU (ssRNA) [Ic_S1_P5E.1_K5.1_C5.1_H5.1_A5.1_[T6C]_[A7C]_F5.1_[T8C]_T5.1] was 13.3 nM.
The value for UCUCUUUGUACCUUAGUCUCUU (ssRNA) [Ic_S1_P5E.1_K5.1_C5.1_H5.1_A5.1_[T5C]_[T6C]_[A7T]_F5.1_[T9A]_[A10G]_T5.1] was 2.41 nM; that for UCUCUUUGUAUCCCGCUCUCUU (ssRNA) [Ic_S1_P5E.1_K5.1_C5.1_H5.1_A5.1_[T6C]_[A7C]_F5.1_[T8C]_[T9G]_[A10C]_T5.1] was 1690 nM.
The value for UCUCUUUGUAUUGGUUUCUCUU (ssRNA) [Ic_S1_P5E.1_K5.1_C5.1_H5.1_A5.1_[A7G]_F5.1_[T8G]_[A10T]_T5.1] was 711 nM.
UCUCUUUGUAUCUUCCUCUCUU (ssRNA) [Ic_S1_P5E.1_K5.1_C5.1_H5.1_A5.1_[T6C]_[A7T]_F5.1_[T9C]_[A10C]_T5.1] gave a Kd of 74.7 nM.
UCUCUUUGUAUUUUCUUCUCUU (ssRNA) [Ic_S1_P5E.1_K5.1_C5.1_H5.1_A5.1_[A7T]_F5.1_[T9C]_[A10T]_T5.1]: binding was put at a Kd of 34.8 nM.
The result for UCUCUUUGUAAUCAUCUCUCUU (ssRNA) [Ic_S1_P5E.1_K5.1_C5.1_H5.1_A5.1_[T5A]_[A7C]_F5.1_[T8A]_[A10C]_T5.1] reads 482 nM; that for UCUCUUUGUACGUUCAUCUCUU (ssRNA) [Ic_S1_P5E.1_K5.1_C5.1_H5.1_A5.1_[T5C]_[T6G]_[A7T]_F5.1_[T9C]_T5.1], 51.8 nM.
UCUCUUUGUACCAGCGUCUCUU (ssRNA) [Ic_S1_P5E.1_K5.1_C5.1_H5.1_A5.1_[T5C]_[T6C]_F5.1_[T8G]_[T9C]_[A10G]_T5.1] showed a Kd of 1180 nM.
The value for UCUCUUUGUAUAUCAGUCUCUU (ssRNA) [Ic_S1_P5E.1_K5.1_C5.1_H5.1_A5.1_[T6A]_[A7T]_F5.1_[T8C]_[T9A]_[A10G]_T5.1] was 4.58 nM.
Molecule UCUCUUUGUAAUUCACUCUCUU (ssRNA) [Ic_S1_P5E.1_K5.1_C5.1_H5.1_A5.1_[T5A]_[A7T]_F5.1_[T8C]_[T9A]_[A10C]_T5.1] gave a Kd of 734 nM.
The value for UCUCUUUGUAGCUGGUUCUCUU (ssRNA) [Ic_S1_P5E.1_K5.1_C5.1_H5.1_A5.1_[T5G]_[T6C]_[A7T]_F5.1_[T8G]_[T9G]_[A10T]_T5.1] was more than 2300 nM.

For the origin of these results see article PMC9352680, “A comprehensive thermodynamic model for RNA binding by the Saccharomyces cerevisiae Pumilio protein PUF4”.
